Values of other authors in patent US12653792B2, “Synthetic lipids for mRNA delivery” (Trustees of Tufts College, priority 2019, dated 2026).

Target: T1, ANGPTL3 (Homo sapiens, UniProt Q9Y5C1)
T1 sequence (Q9Y5C1 17-460): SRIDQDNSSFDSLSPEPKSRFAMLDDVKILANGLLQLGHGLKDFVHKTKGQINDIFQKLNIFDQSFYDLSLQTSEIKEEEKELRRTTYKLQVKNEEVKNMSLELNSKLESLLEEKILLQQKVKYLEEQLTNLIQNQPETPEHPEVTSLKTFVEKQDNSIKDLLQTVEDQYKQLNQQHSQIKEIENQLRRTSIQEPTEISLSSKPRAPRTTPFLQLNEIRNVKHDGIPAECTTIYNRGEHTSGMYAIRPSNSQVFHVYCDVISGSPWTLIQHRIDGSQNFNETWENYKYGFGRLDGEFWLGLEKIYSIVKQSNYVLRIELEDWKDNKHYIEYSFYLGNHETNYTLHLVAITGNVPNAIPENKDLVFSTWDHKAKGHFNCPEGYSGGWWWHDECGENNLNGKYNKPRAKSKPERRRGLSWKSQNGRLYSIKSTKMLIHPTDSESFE
Conditions: healthy human volunteers, clinical trial

For “evinacumab: ANGPTL3 targeting monoclonal antibody”, the “LDL-C and TG levels” value is listed as “effective reduction in LDL-C and TG levels”.
